The target in this assay is T1, Mus musculus SPO11, MBP-tagged (Mus musculus, UniProt Q9WTK8 1-396).
T1 sequence (looked up): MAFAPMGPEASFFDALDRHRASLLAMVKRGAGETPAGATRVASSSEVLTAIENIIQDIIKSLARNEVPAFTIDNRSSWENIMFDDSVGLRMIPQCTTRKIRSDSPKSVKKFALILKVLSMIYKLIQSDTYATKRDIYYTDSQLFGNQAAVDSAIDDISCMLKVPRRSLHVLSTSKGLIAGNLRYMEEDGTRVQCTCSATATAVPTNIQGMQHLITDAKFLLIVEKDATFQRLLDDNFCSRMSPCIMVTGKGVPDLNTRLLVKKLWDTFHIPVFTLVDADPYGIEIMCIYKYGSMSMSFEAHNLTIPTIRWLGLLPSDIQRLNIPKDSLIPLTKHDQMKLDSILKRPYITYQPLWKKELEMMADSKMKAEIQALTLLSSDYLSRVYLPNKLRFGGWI
Put plainly: SEC-MALS.

B1: Mus musculus TOP6BL, HisFlag-tagged (natural protein, UniProt J3QMY9 1-579, looked up)
chain: MERTALAVCEILRYLIIHWKCEAGTAKGTLLDGQLVISIEALRSKHLPDSLHCIITIASTRSVYGGLNFKKFLQEIQPALPRLSAKLALASEEGGRSQDASGIAPCQVTFEVDENSQSLMTDCLVIKHFLRKIIIVHHKLKFSFSVAVNGTLSAETFGAENEPTLRLDNGVTLVVGFQRYVSKPKLNWSEAHCSRIHPVLGHPAPLFIPDAKADTGLLGELTLTPAAALCPSPKGFSSQLCRISSVSIFLYGPLGLPLLSSDQDQPSTAVFRDTSYFIDWKKYNLFMVPNLDLNLDTQSVLPDVNYKAESPEGNQSQNMNAQGPALLLFLFVDFQSDVPVQQAKIWGLHTLLTAHLSAILSESRSTVQQSIQSAVDQVWQLYHHDAKTQQRLQASLSVAVNSIMSVLTGSTRSSFRKTCLQALEAADTQEFGVKLHRIFYDITQHQFLKHCSCDTEQHLTPEKNISAQNTKDQHKNIAQEFPEESIGQAENKRPKRGSPNHGREESRVLGSARDRSPPKSATRDRELTEVSLTARGSQTQAAHGRAQAAEAASPAGGLEDLWLQEVSNLSEWLNPGHRS
As a reminder, the stoichiometry N is the number of molecules, sites or subunits per partner or assembly. With B1, the “stoichiometry N” value was 1.

(Values after paper doi:10.1101/2024.11.20.624454 (bioRxiv, 2024).)
